According to article PMC9931771, “Surufatinib plus toripalimab in patients with advanced solid tumors: a single-arm, open-label, phase 1 trial” (Journal of Cancer Research and Clinical Oncology, 2022):

How the values were obtained:
[1] = Phase 1 trial: pharmacokinetics of surufatinib and toripalimab (non-compartmental analysis); format: in vivo, human
Description: Blood samples were collected for PK evaluation at multiple time points on Cycle 1 Day 1, Cycle 2 Day 1, and Cycle 3 Day 1 for surufatinib and toripalimab, respectively.
DLT events were based on the DLT evaluable population, including patients who received at least 1 cycle of treatment and completed all safety assessments within the DLT assessment window or discontinued early due to DLT in the dose-escalation stage. All safety analyses, progression-free survival (PFS), and overall survival (OS) statistics were based on the safety population, including patients who received at least 1 dose of any study drug. All efficacy endpoints, excluding PFS and OS, were analyzed based on the efficacy evaluable population, including all patients who received at least 1 dose of any study drug and had tumor assessment at baseline and post drug administration prior to initiation of new anti-cancer therapies. The PK analysis was based on the PK population, which included all patients who received at least one dose of the study drug, had at least one PK sample collected and analyzed, and had no protocol deviation that might affect the PK data.
Two-sided 95% confidence interval (CI) of ORR and DCR were computed using the Exact (Clopper–Pearson) method. For time-to-event variables [PFS, OS, DoR (duration of response) and TTR (time to response)], median event time as well as the corresponding 95% CI were estimated using Kaplan–Meier method. All statistical analyses were performed using SAS 9.4 software. Adverse events (AEs) were graded by NCI CTCAE (Common Terminology Criteria for Adverse Events) v4.03, and coded using the Medical Dictionary for Regulatory Activities (MedDRA) v23.1. Treatment-related AEs (TRAEs) referred to AEs related to surufatinib or toripalimab, which were judged by the investigators. PK parameters were calculated by non-compartmental analysis using Phoenix WinNonlin v8.0.

[2] = tested on: NEN patients (Ki-67 ≥ 10%); design: method as in Lu et al. [2020]; conditions: NEN patients (Ki-67 ≥ 10%) after failure of first line therapy; ref Lu et al. [2020]; cited from earlier work
[3] = surufatinib 200 mg + toripalimab 240 mg, C1D1, N 6
[4] = surufatinib 200 mg + toripalimab 240 mg, C2D1, N 4
[5] = surufatinib 200 mg + toripalimab 240 mg, C3D1, N 3
[6] = surufatinib 250 mg + toripalimab 240 mg, C1D1, N 12
[7] = surufatinib 250 mg + toripalimab 240 mg, C2D1, N 11
[8] = surufatinib 250 mg + toripalimab 240 mg, C3D1, N 10
[9] = surufatinib 300 mg + toripalimab 240 mg, C1D1, N 12
[10] = surufatinib 300 mg + toripalimab 240 mg, C2D1, N 10
[11] = surufatinib 300 mg + toripalimab 240 mg, C3D1, N 9

In the case of toripalimab, the “Toripalimab accumulation ratio of AUC0-τ” value ([1]; Cycle 2 Day 1 compared to Cycle 1 Day 1, 240 mg Q3W) is reported as 1.3–1.5, the “Toripalimab exposure (AUC0-τ) across surufatinib dose levels” value ([1]; concomitant administration with surufatinib at different dose levels) is reported as “similar” and the “Toripalimab AUC0-τ, geometric mean (CV%)” value [1, 3] is reported as 15925 (22.8) h×µg/mL. The “Toripalimab CL, geometric mean (CV%)” value [1, 3] was 11.1 (30.8) mL/h, the “Toripalimab Cmax, geometric mean (CV%)” value [1, 3] was 78.1 (15.2) µg/mL and the “Toripalimab Tmax, median” value [1, 3] was 1.96 h. The “Toripalimab t1/2, median” value [1, 3] was 231 h, the “Toripalimab AUC0-τ, geometric mean (CV%)” value [1, 4] was 21512 (26.4) h×µg/mL and the “Toripalimab CL, geometric mean (CV%)” value [1, 4] was 11.2 (24.3) mL/h. For the same substance, the “Toripalimab Cmax, geometric mean (CV%)” value [1, 4] was 96.2 (17.9) µg/mL, the “Toripalimab Tmax, median” value [1, 4] was 2.63 h and the “Toripalimab t1/2, median” value [1, 4] was 320 h. For the same substance, the “Toripalimab AUC0-τ, geometric mean (CV%)” value [1, 5] was 24626 (34.9) h×µg/mL, the “Toripalimab CL, geometric mean (CV%)” value [1, 5] was 9.75 (29.6) mL/h and the “Toripalimab Cmax, geometric mean (CV%)” value [1, 5] was 110 (29.0) µg/mL. For the same substance, the “Toripalimab Tmax, median” value [1, 5] was 1.45 h, the “Toripalimab t1/2, median” value [1, 5] was 390 h and the “Toripalimab AUC0-τ, geometric mean (CV%)” value [1, 6] was 14142 (25.6) h×µg/mL. For the same substance, the “Toripalimab CL, geometric mean (CV%)” value [1, 6] was 13.0 (32.9) mL/h, the “Toripalimab Cmax, geometric mean (CV%)” value [1, 6] was 71.4 (21.6) µg/mL and the “Toripalimab Tmax, median” value [1, 6] was 1.85 h. The “Toripalimab t1/2, median” value [1, 6] was 237 h, the “Toripalimab AUC0-τ, geometric mean (CV%)” value [1, 7] was 17176 (31.5) h×µg/mL and the “Toripalimab CL, geometric mean (CV%)” value [1, 7] was 14.0 (37.2) mL/h. For the same substance, the “Toripalimab Cmax, geometric mean (CV%)” value [1, 7] was 83.8 (24.5) µg/mL, the “Toripalimab Tmax, median” value [1, 7] was 1.13 h and the “Toripalimab t1/2, median” value [1, 7] was 259 h. The “Toripalimab AUC0-τ, geometric mean (CV%)” value [1, 8] was 20157 (39.5) h×µg/mL, the “Toripalimab CL, geometric mean (CV%)” value [1, 8] was 11.9 (52.0) mL/h and the “Toripalimab Cmax, geometric mean (CV%)” value [1, 8] was 97.4 (25.0) µg/mL. For the same substance, the “Toripalimab Tmax, median” value [1, 8] was 1.87 h, the “Toripalimab t1/2, median” value [1, 8] was 246 h and the “Toripalimab AUC0-τ, geometric mean (CV%)” value [1, 9] was 16458 (25.0) h×µg/mL. The “Toripalimab CL, geometric mean (CV%)” value [1, 9] was 11.0 (22.1) mL/h, the “Toripalimab Cmax, geometric mean (CV%)” value [1, 9] was 81.2 (24.5) µg/mL and the “Toripalimab Tmax, median” value [1, 9] was 1.12 h. The “Toripalimab t1/2, median” value [1, 9] was 234 h, the “Toripalimab AUC0-τ, geometric mean (CV%)” value [1, 10] was 20660 (33.7) h×µg/mL and the “Toripalimab CL, geometric mean (CV%)” value [1, 10] was 11.6 (27.6) mL/h. For the same substance, the “Toripalimab Cmax, geometric mean (CV%)” value [1, 10] was 98.1 (27.5) µg/mL, the “Toripalimab Tmax, median” value [1, 10] was 1.26 h and the “Toripalimab t1/2, median” value [1, 10] was 246 h. The “Toripalimab AUC0-τ, geometric mean (CV%)” value [1, 11] was 20063 (46.6) h×µg/mL, the “Toripalimab CL, geometric mean (CV%)” value [1, 11] was 12.0 (35.8) mL/h and the “Toripalimab Cmax, geometric mean (CV%)” value [1, 11] was 103 (33.2) µg/mL. For the same substance, the “Toripalimab Tmax, median” value [1, 11] was 1.17 h, the “Toripalimab t1/2, median” value [1, 11] was 241 h and the DCR [2] was 35%. The ORR [2] was 20%.
